These results are taken from US20250145722A1 (TRUEBINDING, published 2025).

Assay [1] addresses T1, human Galectin-3 (Gal3), full-length recombinant (human, UniProt P17931 2-250).
T1 construct: treated here as one molecule; also called hGAL3; hGal3
Kind of assay: blocking ELISA, Gal3 coated, VEGFR3-Fc, antibody 20 µg/ml.

The target of assay [2] is T1, human Galectin-3 (Gal3), full-length …. Kind of assay: blocking ELISA, Gal3 coated, PDGFR beta-Fc, antibody 20 µg/ml.
Assay [3] shares this target. Kind of assay: Gator biosensor kinetics, antibody loaded on probe, rhGal3-His in solution, 1:1 fit.
Assay [4] shares this target. Description: Gator biosensor kinetics (legend: SPR), 6H6 mIgG2a loaded on probes, rhGalectin-3 as analyte, 1:1 fit.
The target is the same in assay [5]. Description: blocking ELISA, Gal3 coated, EGFR-Fc, antibody 20 µg/ml.
The target is the same in assay [6]. Description: blocking ELISA, Gal3 coated, PDGFR alpha-Fc, antibody 20 µg/ml.
Assay [7] has the same target. Description: cell-based or functional assay.
Assay [8] shares this target. Kind of assay: blocking ELISA, Gal3 coated, biotin-α-synuclein aggregates.
Assay [9] shares this target. Description: blocking ELISA, Gal3 coated, biotin-Tau aggregates.
Assay [10] shares this target. Kind of assay: blocking ELISA, Gal3 coated, biotin-TLR4.
Assay [11] has the same target. Description: blocking ELISA, Gal3 coated, biotin-Abeta42 peptide.
The target is the same in assay [12]. Description: blocking ELISA, Gal3 coated, biotin-Abeta42 oligomer.
Assay [13] has the same target. Kind of assay: blocking ELISA, Gal3 coated, TREM2-His.
Assay [14] addresses mouse Gal3 (mouse, UniProt P16110 2-264, limits assumed). Description: not stated (FIG. 50).
For assay [15], the target named is T1, human Galectin-3 (Gal3), full-length …. Kind of assay: not stated (FIG. 50).
The target is the same in assay [16]. Description: blocking ELISA, Gal3 coated, biotin-APP695.
Assay [17] shares this target. Description: blocking ELISA, Gal3 coated, biotin-TGFβR2.
For assay [18] the target is unchanged. Description: titration of the antibody on a panel of galectins, read as OD450; set-up not given, species of the galectins not given.
The target is the same in assay [19]. Description: ELISA: Gal3 coated at 2 or 3 µg/ml, protein at 2 or 3 µg/ml, anti-human IgG-HRP, A450.
Assay [20] shares this target. Description: ELISA: Gal3 coated, His-tagged TREM2 detected with anti-6xHis-HRP; concentrations of the bars not printed on the sheet.

T1 sequence (P17931 2-250 limits assumed): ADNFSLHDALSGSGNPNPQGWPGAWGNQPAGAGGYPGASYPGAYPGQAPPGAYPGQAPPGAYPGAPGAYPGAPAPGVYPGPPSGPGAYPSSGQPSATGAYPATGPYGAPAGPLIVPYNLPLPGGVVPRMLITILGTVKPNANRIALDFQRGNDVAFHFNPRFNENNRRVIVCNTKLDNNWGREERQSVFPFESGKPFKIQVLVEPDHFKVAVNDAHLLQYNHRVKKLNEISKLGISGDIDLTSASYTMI
Chain of mouse Gal3 (P16110 2-264 limits assumed): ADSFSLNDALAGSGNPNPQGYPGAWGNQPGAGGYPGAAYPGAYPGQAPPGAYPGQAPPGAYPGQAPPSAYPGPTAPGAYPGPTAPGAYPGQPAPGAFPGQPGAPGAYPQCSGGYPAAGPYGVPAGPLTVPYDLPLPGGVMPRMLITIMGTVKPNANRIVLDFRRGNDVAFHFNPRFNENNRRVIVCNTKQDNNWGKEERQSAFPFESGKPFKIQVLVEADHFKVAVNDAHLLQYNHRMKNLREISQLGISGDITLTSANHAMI

B1: 4G2.2G6 (antibody, human IgG4 S228P, kappa, V domains shown)
VH: QIQLVQSGPDLKKPGETVKISCKASGYTFTTYVMSWVKQAPGKDLKWMGWINTHSGVPTYADDFKGRFDFSLETSANTAFLQINNLKNEDTATYFCTRDGNDGDAMDNWGQGTSVTVSS
VL: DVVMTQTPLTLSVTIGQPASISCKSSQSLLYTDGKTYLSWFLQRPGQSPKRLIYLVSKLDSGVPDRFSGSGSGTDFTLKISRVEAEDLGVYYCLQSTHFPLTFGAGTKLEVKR
Take B1: the “% blocking of Gal3-VEGFR3 binding” value in [1] is less than 30%.

B2: 6H6.2D6 (antibody, human IgG4 S228P, kappa, V domains shown)
VH: QIQLVQSGPELKKPGETVKISCKASGYTFTTYGMSWVKQAPGKGLKWMAWINTYSGVPTYADDFKGRFAFSLETSASTAYLQINNLTNEDTATYFCARGPYAMDYWGQGTSVTVSS
VL: DIQMTQTTSSLSASLGDRVTISCSASQGISNYLNWYQQKPDGTVKLLIYYTSSLHSGVPSRFSGSGSGTDYSLTISNLEPEDIATYYCQQYSELPYTFGSGTKLEIKR
With B2, in assay [2], the “% blocking of Gal3-PDGFR beta binding” value was greater than 70%. Besides, the Kd in assay [3] stood at 3.39 nM. Moreover, in assay [4], the koff turned out to be 0.000299 s⁻¹ and the on-rate constant (kon) was 88000 M⁻¹ s⁻¹. For the same molecule, the “% blocking of Gal3-VEGFR3 binding” value in [1] was greater than 70%. In addition, the “% blocking of Gal3-EGFR binding” value in [5] is greater than 70%. Further, the “% blocking of Gal3-PDGFR alpha binding” value in [6] was greater than 70%.

B3: mTB001 (antibody, mouse IgG2a, V domains shown)
VH: QIQLVQSGPELKKPGETVKISCKASGYTFTNYGMNWVKQAPGKGLKWMGWINTNTGEPTYVEEFKGRFAFSLETSASTAYLQINNLKNEDTATYFCAPYDNFFAYWGQGTLVTVSA
VL: DIVITQDELSNPVTSGESVSISCRSSKSLLYKDGKTYLNWFLQRPGQSPQLLIYLMSTHASGVSDRFSGSGSGTDFTLEISRVKAEDVGVYYCQQLVDYPLTFGAGTKLELKR
notes: also called mIMT001; murine IMT001
B3: in assay [2], the “% blocking of Gal3-PDGFR beta binding” value was greater than 70%. For the same molecule, the “decrease in TGFβ induction of ColA1 mRNA in LX2 cells (qRT-PCR)” value in assay [7] was 63%. Moreover, the “% blocking of Gal3-EGFR binding” value in assay [5] is greater than 70%. Moreover, the “% blocking of Gal3-PDGFR alpha binding” value in assay [6] was greater than 70%.

B4: 13G4.2F8 (antibody, human IgG4 S228P, kappa, V domains shown)
VH: QVQLQQPGAELVKPGASVKLSCKASGYTFTSYWMHWVKQRPGQGLEWIGMIHPNSGSTDYNEKFKNKATLNVDKSSSTAYIQLSSLTSEDSAVYYCTRWGIYYYARDYWGQGTTLTVSS
VL: DIVMTQSQKFMSTSVGERVSITCKASQNVGTNVAWYQQKAGQSLELLIYGASNRHTGVPDRFTGSGSGTDFTLTITNVQSEDMTNYFCEQYSNFPLTFGAGTKLELKR
For the molecule B4, in assay [2], the “% blocking of Gal3-PDGFR beta binding” value was less than 30%. Moreover, in [8], the “% blocking of Gal3-α-synuclein aggregates binding” value is less than 50%. Besides, the “% blocking of Gal3-Tau aggregates binding” value in [9] is less than 50%. In addition, in assay [1], the “% blocking of Gal3-VEGFR3 binding” value was less than 30%. For the same molecule, the “% blocking of Gal3-EGFR binding” value in [5] is less than 30%. Further, the “% blocking of Gal3-PDGFR alpha binding” value in assay [6] is less than 30%.

B5: TB006 (antibody, V domains shown)
VH: QVQLVQSGAEVKKPGASVKVSCKASGYSFTNYYMHWVRQAPGQRLEWMGWIYPGSGNTNYNEKFQGRVTITADTSASTAYMELSSLRSEDTAVYYCSTAPGGFDVWGQGTTVTVSS
VL: DIVMTQTPLSLSVTPGQPASISCKSSKSLLHSDGITYLYWYLQKPGQSPQLLIYRMSNLASGVPDRFSGSGSGTDFTLKISRVEAEDVGVYYCAQMLEFPLTFGQGTKLEIKR
notes: Humanized variant derived from murine 4A11.2B5; also called 4A11.H3L1; IMT006
Take B5: the “% blocking of Gal3-TLR4 binding” value in assay [10] was greater than 90%. In addition, in assay [11], the “% blocking of Gal3-Abeta42 peptide binding” value was greater than 90%. Moreover, the “IC50 of TGF-β-induced pro-collagen production in LX-2 cells” value in assay [7] worked out at 0.23 µg/mL. Besides, the “% blocking of Gal3-Tau aggregates binding” value in assay [9] was greater than 90%. For the same molecule, the “% blocking of Gal3-Abeta42 oligomer binding” value in [12] was greater than 90%. Further, the IC50 in assay [12] was determined as 2.38 nM; in assay [17], 11.5 nM. Further, in assay [13], the “% blocking of Gal3-TREM2 binding” value is greater than 90%. For the same molecule, the Kd was 40000 nM in assay [14] and 8.9 nM in [15]. For the same molecule, the “% blocking of Gal3-APP695 binding” value in assay [16] is greater than 90%.

B6: 24D12.2H9 (antibody, human IgG4 S228P, kappa, V domains shown)
VH: QVQLKQSGPGLVQPSQSLSITCTVSGFSLTSYGVHWVRQAPGKGLEWLGVIWSGGSTDYNAAFMSRLSISKDNSKSQVFFKMNSLQADDTAIYYCAKSPDGYDVAWFGYWGQGTLVTVSA
VL: DIVMTQSHKFMSTSVGDRVSITCKASQDVRTAVAWYQQKPGQSPKLLIYWASTRHTGVPDRFTGSGSGTDFTLTLSNVQSEDLADYFCQQYSSYPWTFGGGTKLEIKR
Turning to B6, the “% blocking of Gal3-PDGFR beta binding” value in [2] was less than 30%. Also, the “% blocking of Gal3-VEGFR3 binding” value in assay [1] is less than 30%. The “% blocking of Gal3-EGFR binding” value in assay [5] is less than 30%. Also, in [6], the “% blocking of Gal3-PDGFR alpha binding” value was less than 30%.

B7: TB001 (antibody, IgG4, V domains shown)
VH: QVQLVQSGSELKKPGASVKVSCKASGYTFTNYGMNWVRQAPGQGLKWMGWINTNTGEPTYVEEFTGRFVFSLETSVSTAYLQISSLKAEDTAVYFCAPYDNFFAYWGQGTTVTVSS
VL: DIVLTQSPLSLPVTPGEPASISCRSSKSLLYKDGKTYLNWFLQKPGQSPQLLIYLMSTHASGVPDRFSGSGSGTDFTLKISRVEAEDVGVYYCQQLVDYPLTFGGGTKLEIKR
notes: also called IMT001; IMT001-4
For B7, the “EC50 (read off the curve)” value in assay [18] is roughly 0.007 µg/mL. Besides, the “% blocking of Gal3-TLR4 binding” value in assay [10] was greater than 90%. Further, in assay [11], the “% blocking of Gal3-Abeta42 peptide binding” value is greater than 90%. In assay [7], the “IC50 of TGF-β-induced pro-collagen production in LX-2 cells” value turned out to be 0.25 µg/mL. The “% blocking of Gal3-Abeta42 oligomer binding” value in assay [12] was greater than 90%. Also, the IC50 in [12] is 3.17 nM; in assay [17], 12.8 nM. Further, in assay [13], the “% blocking of Gal3-TREM2 binding” value was greater than 90%. The equilibrium dissociation constant (Kd) stood at 2.3 nM in assay [14] and 3.6 nM in [15]. Moreover, the “% blocking of Gal3-APP695 binding” value in assay [16] is greater than 90%.

B8: recombinant human TNF sRI (R&D Systems, 372-RI/CF) (receptor, UniProt P19438 30-211, looked up)
chain: LVPHLGDREKRDSVCPQGKYIHPQNNSICCTKCHKGTYLYNDCPGPGQDTDCRECESGSFTASENHLRHCLSCSKCRKEMGQVEISSCTVDRDTVCGCRKNQYRHYWSENLFQCFNCSLCLNGTVHLSCQEKQNTVCTCHAGFFLRENECVSCSNCKKSLECTKLCLPQIENVKGTEDSGTT
notes: Detected with anti-human IgG
For the molecule B8, the binding result in assay [19] is recorded as “binds”.

B9: recombinant human TREM2 protein (Sino Biological, 11084-H08H) (receptor, UniProt Q9NZC2 19-174, looked up)
chain: HNTTVFQGVAGQSLQVSCPYDSMKHWGRRKAWCRQLGEKGPCQRVVSTHNLWLLSFLRRWNGSTAITDDTLGGTLTITLRNLQPHDAGLYQCQSLHGSEADTLRKVLVEVLADPLDHRDAGDLWFPGESESFEDAHVEHSISRSLLEGEIPFPPTS
notes: Detected with anti-6x His tag antibody, so His-tagged; tag not described
Regarding B9, in assay [20], the binding result is reported as “binds”.
